From paper PMC6959990

What was measured:
[1] = biological target: PCAT1(C21A) (Clostridium thermocellum) (UniProt A3DCU1); assay: native MS; in 200 mM ammonium acetate pH 7.5 with 0.5% C8E4 (2X CMC); 4 µM PCAT1 monomer alone, or 4 µM PCAT1(C21A) monomer + 8 µM CtA (two-fold excess of CtA); abundances corrected for gas-phase dissociation
[2] = biological target: PCAT1(C21A) (Clostridium thermocellum) (UniProt A3DCU1); assay: native MS; in 200 mM ammonium acetate pH 7.5 with 0.058% UDM (2X CMC); 4 µM PCAT1 monomer alone, or 4 µM PCAT1(C21A) monomer + 8 µM CtA (two-fold excess of CtA); abundances corrected for gas-phase dissociation
[3] = biological target: wt PCAT1 (Clostridium thermocellum) (UniProt A3DCU1); assay: native MS; in 200 mM ammonium acetate pH 7.5 with 0.5% C8E4 (2X CMC); 4 µM PCAT1 monomer alone, or 4 µM PCAT1(C21A) monomer + 8 µM CtA (two-fold excess of CtA); abundances corrected for gas-phase dissociation
[4] = biological target: wt PCAT1 (Clostridium thermocellum) (UniProt A3DCU1); assay: native MS; in 200 mM ammonium acetate pH 7.5 with 0.058% UDM (2X CMC); 4 µM PCAT1 monomer alone, or 4 µM PCAT1(C21A) monomer + 8 µM CtA (two-fold excess of CtA); abundances corrected for gas-phase dissociation
[5] = biological target: PCAT1(C21A) (Clostridium thermocellum) (UniProt A3DCU1); assay: cryo-EM structure; PCAT1(C21A) (5 mg/ml, 62 µM monomer) mixed with 62 µM refolded CtA, 30 min on ice, in UDM, no ATP

A stoichiometry N [1] of 2 and a stoichiometry N [2] of 2 were found for “PCAT1(C21A) (from UniProt A3DCU1 1-727) (natural protein)” in this work.
A stoichiometry N [3] of 2 and a stoichiometry N [4] of 2 were found for “wt PCAT1 (from UniProt A3DCU1 1-727) (natural protein)” in this work.
A stoichiometry N (CtA per PCAT1 transporter) [5] of 2, a % abundance of the C21A-PCAT1 dimer + 1 CtA complex [1] of 16% and a % abundance of the C21A-PCAT1 dimer + 2 CtA complex [1] of 84% were found for CtA (natural protein) in this work. The stoichiometry N (CtA per PCAT1 dimer) [1] was 2, the % abundance of the C21A-PCAT1 dimer + 1 CtA complex [2] was 25% and the % abundance of the C21A-PCAT1 dimer + 2 CtA complex [2] was 75%. For the same substance, the stoichiometry N (CtA per PCAT1 dimer) [2] was 2.
